In patent US12508311B2, “Fusion protein, and preparation method and use thereof” (SUN YAT-SEN UNIVERSITY, priority 2021, dated 2025):

Key:
[1] = tested on: KRas protein in SW1116 (KRas G12D); assay: Western blot of KRas degradation in SW1116 cells; type: cell-based
Description: Cell lines used in this embodiment were SW1116 (KRas G12D), SW480 (KRas G12V) and H358 (KRas G12C), all of which came from ATCC and have item numbers of CCL-233, CCL-228 and CRL-5800 respectively. The treatment process of each cell was consistent with that described in the influence of administration time on degradation of KRas above.

HCT116 cells = assay: Flow cytometry of tumor cell targeting, HCT116; type: cell-based, human; settings: tested as 60 nM TKD-Cy5, 1 hour, Lys 05 10 μM
Description: (§1) Wherein, the protein C18 column (25 cm×10 mm) was used, with sample injection of 2×400 μL each time, and gradient elution was carried out for 30 minutes, 0.1% TFA (trifluoroacetic acid) solution to MeCN (acetonitrile): H2O (0.1% TFA)=70:30, and a flow rate was 4 mL/min. • (4) Target color tape peaks were collected, and the retention time of a labeled polypeptide was longer than that of an unlabeled polypeptide. • (5) The TKD-Cy5 molecule was diluted to 60 μM, and stored in a PBS solution, and kept in the dark at −20° C. 2. […] The cells were treated with corresponding drugs, namely, in the experimental groups, the cells were treated with 60 nM TKD-Cy5 coupling molecule, and in the control groups, the cells were treated with the Cy5 single molecule with corresponding concentration. The lysosome inhibitor Lys 05 with the final concentration of 10 μM was added into the control groups and the experimental groups at the same time, and the final volume of the culture solution in each well was 1 mL. […] The cells were resuspended with the PBS buffer solution, and centrifuged again, and the supernatant was discarded. The operation was repeated for three times. Finally, the cleaned cells were resuspended in 0.2 mL of PBS, wrapped with foil paper, and then analyzed on the flow cytometer (company: BECKMAN COULTER; model: Cytoflex), with the fluorescence channel of APC-A.

[2] = tested on: normal intestinal epithelial cells FHC; assay: Flow cytometry of tumor cell targeting, normal cells FHC; type: cell-based, human; settings: tested as 60 nM TKD-Cy5, 1 hour, Lys 05 10 μM
Description: as §1

[3] = tested on: KRas wild-type (HT29) colorectal cancer; assay: In-vivo tumor formation experiment, HT29 subcutaneous tumor; set-up: species or system mice; settings: seven times
Description: • (1) Balb/c nude mice, female, 4 weeks to 5 weeks old, purchased from Guangdong Laboratory Animal Center and raised in Laboratory Animal Center of Sun Yat-sen University, were used in this experiment. […] After counting, 7.5 million HT29 and HCT116 cells were taken respectively, washed twice with PBS, centrifuged at 300 g for 5 minutes after fishing each washing, and collected. • (3) The cell dilution buffer solution having the composition of PBS: matrix glue (Corning Company)=1:1 was prepared to resuspend the cells. […] In the experiment, the administration volume was 150 μL, the administration frequency was once every three days at a fixed time, and the administration was continued for seven times. • (6) After the administration, each mouse was injected with 150 μL of tribromoethanol, and then killed by cervical dislocation. […]
• (1) Balb/c nude mice, female, 4 weeks to 5 weeks old, purchased from Guangdong Laboratory Animal Center and raised in Laboratory Animal Center of Sun Yat-sen University, were used in this experiment. The experimental mice were divided into two groups, with five mice in each group, which were respectively a phosphate buffer solution (PBS) control group and a […]. • (2) The HT29 and HCT116 cells in the logarithmic phase were digested with pancreatin, the digestion was stopped with the complete culture solution, and then the cells were counted. […]

HT29 (KRas wt) = assay: Cell clone formation experiment, HT29; settings: 10 and 20 μg/mL
HCT116 (KRas G13D) = assay: Cell clone formation experiment, HCT116; settings: 10 and 20 μg/mL

B1: TKD: fusion protein: tumour-cell-penetrating peptide BR2, anti-KRas nanobody VHH and lysosome recognition peptide CTM; SEQ ID NO.4 (protein)
chain: RAGLQFPVGRLLRRLLRDVQLQESGGGLVQAGGSLRLSCVASGRTFSTYPTGWFRQAPGKEREFVARINLSGGITNYADSVKGRFTISRDNAKNTVYLQMNSLKPEDTAVYYCGGGSTTWAGGIPTNFDYWGQGTQVTVSSGRKFERQKILDQRFFE
- degradation of mutated KRas protein (western blot) [1]: could induce the degradation of the KRas proteins in different mutation states, and the degradation effect was remarkable
- entry into cells (flow cytometry, Cy5 fluorescence) (HCT116 cells): could specifically recognize and pass through the cell membrane to enter the colorectal cancer cells
- entry into cells (flow cytometry, Cy5 fluorescence) [2]: could not enter the normal colorectal epithelial cells
- inhibition of tumor growth (tumor weight) ([3]; TKD 25 and 50 mg/kg intraperitoneal, once every three days, vs PBS): could significantly inhibit the growth
- tumor growth inhibition, TKD-50 mg/kg group compared with TKD-25 mg/kg group ([3]; intraperitoneal): had a better effect than the TKD-25 mg/kg group
- inhibition of clone growth (HT29 (KRas wt)): could significantly inhibit the growth
- inhibition of clone growth (HCT116 (KRas G13D)): could significantly inhibit the growth
